Among the data in patent publication US20210388330A1 are KD1, KD2 and fold reduction of binding affinity of KD2 against IDS values, retold here.

Test [1] concerns the target soluble mannose-6-phosphate receptor (sM6PR). Put plainly: Biacore (SPR) analysis of binding to sM6PR, two KD values fitted. In general terms: In SPR one partner is held on a chip, and binding of the other changes the refractive index at the surface.
The target is the same in test [2]. Put plainly: Biacore (SPR), dpIDS compared with untreated IDS.

B1: Recombinant iduronate-2-sulfatase (IDS), produced in human HT-1080 cells (enzyme)
chain: SETQANSTTDALNVLLIIVDDLRPSLGCYGDKLVRSPNIDQLASHSLLFQNAFAQQAVCAPSRVSFLTGRRPDTTRLYDFNSYWRVHAGNFSTIPQYFKENGYVTMSVGKVFHPGISSNHTDDSPYSWSFPPYHPSSEKYENTKTCRGPDGELHANLLCPVDVLDVPEGTLPDKQSTEQAIQLLEKMKTSASPFFLAVGYHKPHIPFRYPKEFQKLYPLENITLAPDPEVPDGLPPVAYNPWMDIRQREDVQALNISVPYGPIPVDFQRKIRQSYFASVSYLDTQVGRLLSALDDLQLANSTIIAFTSDHGWALGEHGEWAKYSNFDVATHVPLIFYVPGRTASLPEAGEKLFPYLDPFDSASQLMEPGRQSMDLVELVSLFPTLAGLAGLQVPPRCPVPSFHVELCREGKNLLKHFRFRDLEEDPYLPGNPRELIAYSQYPRPSDIPQWNSDKPSLKDIKIMGYSIRTIDYRYTVWVGFNPDEFLANFSDIHAGELYFVDSDPLQDHNMYNDSQGGDLFQLLMP
modifications: mannose-6-phosphate residues on N-linked oligomannose glycans; M6P content 2.56 pmol M6P/pmol protein (Table 3)
Consider B1, for which, in test [1], the KD1 came to 58.2 nM and the KD2 stood at 0.813 nM.

B2: CIP-treated dephosphorylated iduronate-2-sulfatase (dpIDS) (enzyme)
chain: SETQANSTTDALNVLLIIVDDLRPSLGCYGDKLVRSPNIDQLASHSLLFQNAFAQQAVCAPSRVSFLTGRRPDTTRLYDFNSYWRVHAGNFSTIPQYFKENGYVTMSVGKVFHPGISSNHTDDSPYSWSFPPYHPSSEKYENTKTCRGPDGELHANLLCPVDVLDVPEGTLPDKQSTEQAIQLLEKMKTSASPFFLAVGYHKPHIPFRYPKEFQKLYPLENITLAPDPEVPDGLPPVAYNPWMDIRQREDVQALNISVPYGPIPVDFQRKIRQSYFASVSYLDTQVGRLLSALDDLQLANSTIIAFTSDHGWALGEHGEWAKYSNFDVATHVPLIFYVPGRTASLPEAGEKLFPYLDPFDSASQLMEPGRQSMDLVELVSLFPTLAGLAGLQVPPRCPVPSFHVELCREGKNLLKHFRFRDLEEDPYLPGNPRELIAYSQYPRPSDIPQWNSDKPSLKDIKIMGYSIRTIDYRYTVWVGFNPDEFLANFSDIHAGELYFVDSDPLQDHNMYNDSQGGDLFQLLMP
modifications: dephosphorylated with acrylic bead-bound calf intestine alkaline phosphatase; M6P content reduced to 0.15 pmol M6P/pmol protein (Table 3)
For B2, in test [1], the KD1 was 32.1 nM and the KD2 was determined as 5.94 nM. Also, in test [2], the fold reduction of binding affinity of KD2 against IDS amounted to 7 fold.
